Assay in all cases: cell-based or functional assay
Test [1] deals with HIV-1 Env of pseudovirus C3347.c11 (clade CRF01_AE) (HIV-1).
Test [2] has as its target HIV-1 Env of pseudovirus T278-50 (clade CRF02_AG) (HIV-1).
For test [3], the target named is HIV-1 Env of pseudovirus 620345.c01 (clade CRF01_AE) (HIV-1).
Test [4] has as its target HIV-1 Env of pseudovirus 211-9 (clade CRF02_AG) (HIV-1).
Test [5] addresses HIV-1 Env of pseudovirus R1166.c01 (clade CRF01_AE) (HIV-1).
Test [6] addresses HIV-1 Env of pseudovirus BJOX015000.11.5 (clade CRF01_AE (T/F)) (HIV-1).
Test [7] concerns the target HIV-1 Env pseudovirus R2184.c04 (HIV-1).
For test [8], the target named is HIV-1 Env pseudovirus BJOX009000.02.4 (HIV-1).
Test [9] has as its target HIV-1 Env pseudovirus 0260.v5.c36 (HIV-1).
For test [10], the target named is HIV-1 Env pseudovirus 6545.v4.c1 (HIV-1).
For test [11], the target named is HIV-1 Env pseudovirus A07412M1.vrc12 (HIV-1).
The target of test [12] is HIV-1 Env pseudovirus X2131_C1_B5 (HIV-1).
Test [13] addresses HIV-1 Env pseudovirus P1981_C5_3 (HIV-1).
For test [14], the target named is HIV-1 Env pseudovirus T251-18 (HIV-1).
The target of test [15] is HIV-1 Env pseudovirus CNE8 (HIV-1).
Test [16] deals with HIV-1 Env pseudovirus 6540.v4.c1 (HIV-1).
The target in test [17] is HIV-1 Env pseudovirus BJOX010000.06.2 (HIV-1).
Test [18] addresses HIV-1 Env pseudovirus 3415.v1.c1 (HIV-1).

With 10-1074 (antibody), the IC50, titer in TZM.bl cells in test [1] is above 50 µg/mL; in test [2] it was 2.15 µg/mL; in [3], above 50 µg/mL; in test [4] it was 0.112 µg/mL; in test [5], above 50 µg/mL; in test [6], above 50 µg/mL. For the same substance, the IC80, titer in TZM.bl cells in test [1] was above 50 µg/mL; in [2] it was 18.3 µg/mL; in test [3], above 50 µg/mL; in test [4], 0.425 µg/mL; in test [5], above 50 µg/mL; in test [6], above 50 µg/mL.
For 10E8 (antibody), the IC50, titer in TZM.bl cells was found to be 0.016 µg/mL in [1]; 0.949 µg/mL in test [2]; 0.455 µg/mL in test [3]; 1.09 µg/mL in test [4]; 0.274 µg/mL in test [5]; 0.051 µg/mL in test [6]. In addition, the IC80, titer in TZM.bl cells in test [1] came out at 0.167 µg/mL; in test [2] it was 7.46 µg/mL; in test [3], 6 µg/mL; in [4], 6.51 µg/mL; in test [5], 2.61 µg/mL; in test [6], 1.91 µg/mL.
On to N49P9.1 (antibody), for which the half-maximal inhibitory concentration (IC50) is 0.019 µg/mL in test [7]; 0.965 µg/mL in [8]; 0.519 µg/mL in test [9]; above 50 µg/mL in test [10]; 0.189 µg/mL in test [11]; 0.143 µg/mL in test [12]. In addition, the IC50 in [13] is 0.469 µg/mL; in test [14], 0.127 µg/mL; in [15], 0.228 µg/mL; in [16], above 50 µg/mL; in test [17], 0.883 µg/mL; in [18], 0.21 µg/mL. For the same substance, the IC80 in [7] was 0.057 µg/mL; in [8], 3.93 µg/mL; in [9] it was 0.151 µg/mL; in test [10] it was above 50 µg/mL; in [11], 0.947 µg/mL; in test [12], 0.476 µg/mL. Further, the IC80 in test [13] was 1.52 µg/mL; in test [14] it was 0.352 µg/mL; in test [15] it was 0.921 µg/mL; in test [16], above 50 µg/mL; in test [17], 4.26 µg/mL; in test [18], 1.37 µg/mL. Besides, the MPI in test [7] worked out at 100; in test [8], 100; in [9], 100; in [10], 6; in test [11], 100; in test [12], 100. For the same substance, the MPI in test [13] turned out to be 100; in test [14], 100; in test [15], 100; in test [16], 30; in test [17], 100; in test [18], 100.
As for N49P19 (antibody), the IC50 in [7] was 0.132 µg/mL; in test [8], 3.66 µg/mL; in test [9] it was 1.25 µg/mL; in test [10], above 50 µg/mL; in [11] it was 3.89 µg/mL; in [12], 2.52 µg/mL. For the same substance, the IC50 is 20.2 µg/mL in test [13]; 0.938 µg/mL in [14]; 0.772 µg/mL in test [15]; 11.2 µg/mL in [16]; 4.16 µg/mL in test [17]; 0.462 µg/mL in test [18]. In addition, the IC80 in test [7] is 0.445 µg/mL; in test [8] it was 25.6 µg/mL; in test [9], 8.52 µg/mL; in test [10], above 50 µg/mL; in test [11], 48.8 µg/mL; in [12], 14.4 µg/mL. In addition, the IC80 in [13] was above 50 µg/mL; in test [14], 4.2 µg/mL; in [15] it was 4.84 µg/mL; in [16] it was above 50 µg/mL; in test [17], 19.1 µg/mL; in [18], 2.04 µg/mL. Also, the MPI in [7] is 100; in [8], 87; in test [9], 99; in test [10], 2; in test [11] it was 80; in [12] it was 91. Besides, the MPI in [13] stood at 68; in [14], 100; in [15] it was 97; in test [16], 63; in test [17], 96; in test [18], 100.
Turning to PG9 (antibody), the IC50, titer in TZM.bl cells in test [1] is 0.032 µg/mL; in test [2], 0.393 µg/mL; in [3], 1.33 µg/mL; in test [4], 0.049 µg/mL; in test [5], 0.736 µg/mL; in test [6], 0.322 µg/mL. The IC80, titer in TZM.bl cells is 0.113 µg/mL in test [1]; 3.19 µg/mL in [2]; above 50 µg/mL in [3]; 0.243 µg/mL in [4]; 2.88 µg/mL in [5]; 1.49 µg/mL in test [6].
Regarding PG16 (antibody), the IC50, titer in TZM.bl cells is 0.008 µg/mL in test [1]; 0.227 µg/mL in [2]; above 50 µg/mL in test [3]; 0.029 µg/mL in test [4]; 0.28 µg/mL in test [5]; 3.13 µg/mL in test [6]. Further, the IC80, titer in TZM.bl cells in test [1] was 0.045 µg/mL; in test [2] it was 18.6 µg/mL; in test [3] it was above 50 µg/mL; in test [4] it was 0.144 µg/mL; in test [5], 4.38 µg/mL; in test [6], above 50 µg/mL.

Broadly, the IC50 is the concentration at which inhibition is half-maximal. The IC80 is the point of the concentration-response curve where the effect stands at 80%. The low end stands for greater potency, the high end for weaker potency.

Source of the values: US20230002480A1.
